Assay results reported in patent publication US20230192896A1 (BIOVERATIV THERAPEUTICS, published 2023).

B1: BIIB-12-1289 (antibody, V domains shown)
VH: QVQLVQSGAEVKKPGASVKVSCKASGYTFTSYYMHWVRQAPGQGLEWMGIINPGGGSTSYAQKFQGRVTMTRDTSTSTVYMELSSLRSEDTAVYYCARGPPRTYATGSHNWFDPWGQGTLVTVSS
VL: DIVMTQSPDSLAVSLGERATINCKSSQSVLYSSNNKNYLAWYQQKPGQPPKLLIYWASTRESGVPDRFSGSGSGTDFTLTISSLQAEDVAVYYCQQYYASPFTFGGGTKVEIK
notes: IgG
B2: BIIB-12-932 (antibody, V domains shown)
VH: QVQLVESGGGVVQPGRSLRLSCAASGFTFSSYGMHWVRQAPGKGLEWVAVISYDGSNKYYADSVKGRFTISRDNSKNTLYLQMNSLRAEDTAVYYCARLGYRGASAFDIWGQGTMVTVSS
VL: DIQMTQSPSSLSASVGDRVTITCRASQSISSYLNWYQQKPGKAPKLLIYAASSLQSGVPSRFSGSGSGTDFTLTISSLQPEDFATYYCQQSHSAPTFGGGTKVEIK
notes: IgG
B3: BIIB-12-935 (antibody, V domains shown)
VH: QVQLVESGGGVVQPGRSLRLSCAASGFTFSSYGMHWVRQAPGKGLEWVAVISYDGSNKYYADSVKGRFTISRDNSKNTLYLQMNSLRAEDTAVYYCARELEYGHYGMDVWGQGTTVTVSS
VL: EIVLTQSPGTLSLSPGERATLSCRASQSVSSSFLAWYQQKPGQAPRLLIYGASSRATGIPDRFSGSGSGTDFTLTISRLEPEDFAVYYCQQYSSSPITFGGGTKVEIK
notes: IgG
B4: BIIB-12-927 (antibody, V domains shown)
VH: QVQLVQSGAEVKKPGASVKVSCKASGYTFTSYYMSWVRQAPGQGLEWMGIINPSGGSTSYAQKFQGRVTMTRDTSTSTVYMELSSLRSEDTAVYYCARDSGRKRYYYMDVWGKGTTVTVSS
VL: EIVMTQSPATLSVSPGERATLSCRASQSVSSNLAWYQQKPGQAPRLLIYGASTRATGIPARFSGSGSGTEFTLTISSLQSEDFAVYYCQQFNLWPFTFGGGTKVEIK
notes: IgG
B5: BIIB-12-931 (antibody, V domains shown)
VH: QVQLVQSGAEVKKPGASVKVSCKASGYTFTSYYMSWVRQAPGQGLEWMGIINPSGGSTSYAQKFQGRVTMTRDTSTSTVYMELSSLRSEDTAVYYCARDPVQEYGPYYYYMDVWGKGTTVTVSS
VL: EIVMTQSPATLSVSPGERATLSCRASQSVSSNLAWYQQKPGQAPRLLIYGASTRATGIPARFSGSGSGTEFTLTISSLQSEDFAVYYCQQAAYWPWTFGGGTKVEIK
notes: IgG
B6: BIIB-12-936 (antibody, V domains shown)
VH: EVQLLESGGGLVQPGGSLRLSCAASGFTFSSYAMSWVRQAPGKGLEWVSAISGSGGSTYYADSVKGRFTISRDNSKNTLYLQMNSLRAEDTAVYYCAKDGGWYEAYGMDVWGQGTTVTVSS
VL: EIVMTQSPATLSVSPGERATLSCRASQSVSSNLAWYQQKPGQAPRLLIYGASTRATGIPARFSGSGSGTEFTLTISSLQSEDFAVYYCQQSHNLPPTFGGGTKVEIK
notes: IgG
B7: BIIB-12-920 (antibody, V domains shown)
VH: QVQLVQSGAEVKKPGASVKVSCKASGYTFTSYGISWVRQAPGQGLEWMGWISPYNGNTNYAQKLQGRVTMTTDTSTSTAYMELRSLRSDDTAVYYCARGSGHTTMFWGQGTLVTVSS
VL: EIVMTQSPATLSVSPGERATLSCRASQSVSSNLAWYQQKPGQAPRLLIYSASTRATGIPARFSGSGSGTEFTLTISSLQSEDFAVYYCQQANAYPPTFGGGTKVEI
notes: IgG
B8: BIIB-12-934 (antibody, V domains shown)
VH: QVQLVESGGGVVQPGRSLRLSCAASGFTFSSYGMHWVRQAPGKGLEWVAVISYDGSNKYYADSVKGRFTISRDNSKNTLYLQMNSLRAEDTAVYYCARESGGHSYGMDVWGQGTTVTVSS
VL: EIVLTQSPATLSVSPGERATLSCRASQSVSSNLAWYQQKPGQAPRLLIYGASTRATGIPARFSGSGSGTEFTLTISSLQSEDFAVYYCQQFNDHPITFGGGTKVEI
notes: IgG
B9: BIIB-12-916 (antibody, V domains shown)
VH: QVQLVQSGAEVKKPGASVKVSCKASGYTFTSYYMHWVRQAPGQGLEWMGIINPSGGSTSYAQKFQGRVTMTRDTSTSTVYMELSSLRSEDTAVYYCARGGRQKATRRVDVWGQGTVVTVSS
VL: DIQMTQSPSSLSASVGDRVTITCRASQSISSYLNWYQQKPGKAPKLLIYAASSLQSGVPSRFSGSGSGTDFTLTISSLQPEDFATYYCQQLAITPFTFGGGTKVEIK
notes: IgG
B10: BIIB-12-937 (antibody, V domains shown)
VH: QVQLVQSGAEVKKPGASVKVSCKASGYTFTSYYMHWVRQAPGQGLEWMGIINPSGGSTSYAQKFQGRVTMTRDTSTSTVYMELSSLRSEDTAVYYCARPTRMLRSYGMDVWGQGTTVTVSS
VL: not shown
notes: IgG
B11: BIIB-12-924 (antibody, V domains shown)
VH: QVQLVESGGGVVQPGRSLRLSCAASGFTFSSYGMHWVRQAPGKGLEWVAVISYDGSNKYYADSVKGRFTISRDNSKNTLYLQMNSLRAEDTAVYYCAKGKSSERGLNPWGQGTLVTVSS
VL: DIQMTQSPSSVSASVGDRVTITCRASQGISSWLAWYQQKPGKAPKLLIYAASSLQSGVPSRFSGSGSGTDFTLTISSLQPEDFATYYCQQGNSFPLTFGGGTKVEIK
notes: IgG
B12: BIIB-12-921 (antibody, V domains shown)
VH: QVQLVESGGGVVQPGRSLRLSCAASGFTFSSYGMHWVRQAPGKGLEWVAVISYDGSNKYYADSVKGRFTISRDNSKNTLYLQMNSLRAEDTAVYYCAKVGDRGTRAFDPWGQGTLVTVSS
VL: DIQMTQSPSSVSASVGDRVTITCRASQGISRWLAWYQQKPGKAPKLLIYAASSLQSGVPSRFSGSGSGTDFTLTISSLQPEDFATYYCQQGNVFPLTFGGGTKVEIK
notes: IgG
B13: BIIB-12-926 (antibody, V domains shown)
VH: QVQLVQSGAEVKKPGASVKVSCKASGYTFTSYYMHWVRQAPGQGLEWMGIINPSGGSTSYAQKFQGRVTMTRDTSTSTVYMELSSLRSEDTAVYYCARDGRMARGASPDYWGQGTLVTVSS
VL: EIVMTQSPATLSVSPGERATLSCRASQSVSSNLAWYQQKPGQAPRLLIYGASTRATGIPARFSGSGSGTEFTLTISSLQSEDFAVYYCQQHSFWPPTFGGGTKVEIK
notes: IgG
B14: BIIB-12-918 (antibody, V domains shown)
VH: QVQLVESGGGVVQPGRSLRLSCAASGFTFSSYGMHWVRQAPGKGLEWVAVISYDGSNKYYADSVKGRFTISRDNSKNTLYLQMNSLRAEDTAVYYCAKSLGGRSFDIWGQGTMVTVSS
VL: DIQMTQSPSSLSASVGDRVTITCRASQSISRYLNWYQQKPGKAPKLLIYAASSLQSGVPSRFSGSGSGTDFTLTISSLQPEDFATYYCQQIFSLPITFGGGTKVEIK
notes: IgG
B15: BIIB-12-1309 (antibody, V domains shown)
VH: QVQLVESGGGVVQPGRSLRLSCAASGFTFSSYGMHWVRQAPGKGLEWVAVISYDGSNKYYADSVKGRFTISRDNSKNTLYLQMNSLRAEDTAVYYCARGRYTSRYFQHWGQGTLVTVSS
VL: DIQMTQSPSSVSASVGDRVTITCRASQGISSWLAWYQQKPGKAPKLLIYAASSLQSGVPSRFSGSGSGTDFTLTISSLQPEDFATYYCQQANSLPITFGGGTKVEIK
notes: IgG
B16: BIIB-12-914 (antibody, V domains shown)
VH: QVQLVQSGAEVKKPGASVKVSCKASGYTFTSYYMHWVRQAPGQGLEWMGIINPSGGSTSYAQKFQGRVTMTRDTSTSTVYMELSSLRSEDTAVYYCARAPRYRGTMDVWGQGTTVTVSS
VL: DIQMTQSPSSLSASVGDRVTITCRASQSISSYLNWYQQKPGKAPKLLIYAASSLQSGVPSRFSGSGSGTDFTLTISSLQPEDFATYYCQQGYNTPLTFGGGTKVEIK
notes: IgG; also called BIB-12-914
B17: BIIB-12-929 (antibody, V domains shown)
VH: QVQLVQSGAEVKKPGASVKVSCKASGYTFTSYYMHWVRQAPGQGLEWMGIINPSGGSTSYAQKFQGRVTMTRDTSTSTVYMELSSLRSEDTAVYYCARDQGYSRSFDIWGQGTMVTVSS
VL: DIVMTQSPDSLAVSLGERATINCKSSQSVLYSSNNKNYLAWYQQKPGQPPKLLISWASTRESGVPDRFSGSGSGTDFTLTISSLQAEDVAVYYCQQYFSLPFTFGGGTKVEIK
notes: IgG
B18: BIIB-12-919 (antibody, V domains shown)
VH: QVQLVQSGAEVKKPGASVKVSCKASGYTFTSYYMHWVRQAPGQGLEWMGVINPSGGSTSYAQKFQGRVTMTRDTSTSTVYMELSSLRSEDTAVYYCARGANIAVGRRYADYWGQGTLVTVSS
VL: DIQMTQSPSTLSASVGDRVTITCRASQSISSWLAWYQQKPGKAPKLLIYKASSLESGVPSRFSGSGSGTEFTLTISSLQPDDFATYYCQQVSSYPTFGGGTKVEIK
notes: IgG
B19: BIIB-12-913 (antibody, V domains shown)
VH: QVQLVQSGAEVKKPGASVKVSCKASGYTFTSYGISWVRQAPGQGLEWMGWISAYNGNTNYAQKLQGRVTMTTDTSTSTAYMELRSLRSDDTAVYYCARGGVSRFWGQGTLVTVSS
VL: EIVMTQSPATLSVSPGERATLSCRASQSVSSNLAWYQQKPGQAPRLLIYGASTRATGIPARFSGSGSGTEFTLTISSLQSEDFAVYYCQQYAPYPPLTFGGGTKVEIK
notes: IgG
B20: BIIB-12-933 (antibody, V domains shown)
VH: QVQLVESGGGVVQPGRSLRLSCAASGFTFSSYGMHWVRQAPGKGLEWVAVISYDGSNKYYADSVKGRFTISRDNSKNTLYLQMNSLRAEDTAVYYCARLPRFTGTAYWGQGTLVTVSS
VL: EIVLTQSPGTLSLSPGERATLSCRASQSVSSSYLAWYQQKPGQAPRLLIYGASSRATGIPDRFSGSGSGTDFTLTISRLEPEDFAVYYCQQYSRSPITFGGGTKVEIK
notes: IgG
B21: BIIB-12-915 (antibody, V domains shown)
VH: QLQLQESGPGLVKPSETLSLTCTVSGGSISSSRYYWGWIRQPPGKGLEWIGSIYYSGSTYYNPSLKSRVTISVDTSKNQFSLKLSSVTAADTAVYYCARVGGGYANPWGQGTLVTVSS
VL: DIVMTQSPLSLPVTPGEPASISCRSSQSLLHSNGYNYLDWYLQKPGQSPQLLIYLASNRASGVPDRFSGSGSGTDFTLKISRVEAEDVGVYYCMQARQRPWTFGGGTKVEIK
notes: IgG
B22: BIIB-12-922 (antibody, V domains shown)
VH: QVQLVQSGAEVKKPGASVKVSCKASGYTFTSYYMHWVRQAPGQGLEWMGIINPSGGSTSYAQKFQGRVTMTRDTSTSTVYMELSSLRSEDTAVYYCARRGRIAGMWGQGTTVTVSS
VL: not shown
notes: IgG
B23: BIIB-12-923 (antibody, V domains shown)
VH: QVQLVQSGAEVKKPGASVKVSCKASGYTFTSYYMHWVRQAPGQGLEWMGIINPSGGSTSYAQKFQGRVTMTRDTSTSTVYMELSSLRSEDTAVYYCARGAGYLQRAFDIWGQGTMVTVSS
VL: DIQMTQSPSTLSASVGDRVTITCRASQSISSWLAWYQQKPGKAPKLLIYKASSLESGVPSRFSGSGSGTEFTLTISSLQPDDFATYYCQQFKSLSFTFGGGTKVEIK
notes: IgG
B24: BIIB-12-1288 (antibody, V domains shown)
VH: QVQLVQSGAEVKKPGASVKVSCKASGYTFTSYYMHWVRQAPGQGLEWMGIINPSGGSTSYAQKFQGRVTMTRDTSTSTVYMELSSLRSEDTAVYYCARGGANDYGSSSRWWYFDLWGRGTLVTVSS
VL: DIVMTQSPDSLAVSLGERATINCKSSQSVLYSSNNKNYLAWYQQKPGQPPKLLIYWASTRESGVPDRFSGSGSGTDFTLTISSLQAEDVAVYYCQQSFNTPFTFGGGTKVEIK
notes: IgG
B25: BIIB-12-930 (antibody, V domains shown)
VH: QVQLVQSGAEVKKPGASVKVSCKASGYTFTSYYMHWVRQAPGQGLEWMGIINPSGGSTSYAQKFQGRVTMTRDTSTSTVYMELSSLRSEDTAVYYCARVRQKATLLFQHWGQGTLVTVSS
VL: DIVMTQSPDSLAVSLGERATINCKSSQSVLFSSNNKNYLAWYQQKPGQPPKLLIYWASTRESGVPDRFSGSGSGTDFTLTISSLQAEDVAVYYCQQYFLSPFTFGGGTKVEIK
notes: IgG

Target: T1, non-activatable Factor X (FXn) (Homo sapiens (Human), UniProt P00742 41-488, single biotin on the C-terminal BioTag)
T1 construct: also called BIIB-FX-015
Assay: BLI; class meaning: paragraph 285

Binding result, binds:
B1, B2, B3, B4, B5, B6, B7, B8, B9, B10, B11, B12, B13, B14, B15, B16, B17, B18, B19, B20, B21, B22, B23, B24, B25
